This sample holds only a part of the variants without activity.
B1: TPR 5TU (parent)
chain: GGAUCUUCUCGAUCUAACAAAAAAGACAAAUCUGCCACAAAGCUUGAGAGCAUCUUCGGAUGCAGAGGCGGCAGCCUUCGGUGGCGCGAUAGCGCCAACGUUCUCAACUAUGACACGCAAAACGCGUGCUCCGUUGAAUGGAGUUUAUCAUG

Variants of: B1
Assay: polymerase ribozyme fitness, log enrichment relative to wild type (log ratio); higher = more active; in vitro selection for triplet polymerase activity
Procedure, shortened: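 After PCR construction and transcription, each subunit's mutant library from a heterodimeric triplet polymerase ribozyme was annealed with a biotinylated primer, the partner subunit and triplets. Incubation was frozen, at −7 °C, and extended constructs were gel-excised, bound to streptavidin beads and amplified by RT-PCR, in one selection round done in triplicate. Fitness is the logarithm of a genotype's enrichment divided by that of the wild type, from inverse-variance-weighted replicate averages of Illumina-sequenced inputs and outputs. The base of the logarithm is 2, and genotypes needed ≥10 input reads and ≥1 read per output.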

| Variant | polymerase ribozyme fitness (log ratio) |
| --- | --- |
| C51A G84A U144A | -2.52 |
| A16G A20C U78A C87U | ≤ -4.2 |
| A12U | -0.161 |
| A73G A97G | 0.222 |
| A17G A49C C87G C123G G141A | ≤ -4.2 |
| C93U A97U | -2.14 |
| U55A A106U A107U | -4.11 |
| A24U A47C G86A G94C C118U A137G | ≤ -4.2 |
| A22U C76G C87G U101G G140C | -4.19 |
| C75A C79U G94C | ≤ -4.2 |
| U61G C87A A150G | ≤ -4.2 |
| A89G A98G G143C | -3.66 |
| A20G A28U G42C A49C C93G C103A | ≤ -4.2 |
| A24G C35A G58A C93G C99A | ≤ -4.2 |
| A28C U61A U134A U148C | ≤ -4.2 |
| A23U C43A C69G C99G U139A U144A | ≤ -4.2 |
| C85G U135A | -3.38 |
| G70U G81A | -2.35 |
| C38U G58A U61A U134C | -1.57 |
| C8U A22U U56A A73G A121G C123U | -4.16 |
| A39G C103G G126U | ≤ -4.2 |
| C51A A60G C95G U146C U151G | ≤ -4.2 |
| A37G C51U A66U G83A U151G | ≤ -4.2 |
| G83C G117U | -1.62 |

| Variant | polymerase ribozyme fitness (log ratio) |
| --- | --- |
| C93G A98C | -2.81 |
| C10U G50U C95U | -3.16 |
| A3U C36A G42C C87A A89G G100C | ≤ -4.2 |
| A52G U56G A60C C85G G143U | ≤ -4.2 |
| A22C C38U C69U C85U | -1.31 |
| C63U C93A C116G A142G | -3.41 |
| C10U G42C G88U C105G G143U | ≤ -4.2 |
| A16C C57U A60G G86U C125U U134G | -4.12 |
| C27A G74A C76G G86C G128A C129U U144C | ≤ -4.2 |
| C35U U61A A66C C69U | ≤ -4.2 |
| C96G A98U U144G | -0.0548 |
| U44G A73U C85U U109G | ≤ -4.2 |
| C51U U53G A119U G143C | ≤ -4.2 |
| A3G U6A A39U G84U U134A U144C A150U | ≤ -4.2 |
| A30U C32U G48A C51U U56G C76U | ≤ -4.2 |
| C54U C85G C87G | ≤ -4.2 |
| G11C A41C A66C C85U A122U G140U | ≤ -4.2 |
| C14A A60G C85G C118G C132U | -3.89 |
| U31C C76U C93G U102C U145G | ≤ -4.2 |
| G59C C95U | 0.0454 |
| G50C C76A G83U C103A C132G U145G | ≤ -4.2 |
| A47U C85A U139G | -1.24 |
| U6A U56A U82G C103U | -1.06 |
| A20U U56A A64C A107G G126U | ≤ -4.2 |

| Variant | polymerase ribozyme fitness (log ratio) |
| --- | --- |
| C54A G136A | -0.852 |
| A22G C54U U56A C76U G94C U145A | -0.624 |
| A16C A20G A24U A40G G48U G58U U77C C85U | ≤ -4.2 |
| U53A A122G U134A | -3.02 |
| A23G G25C A40C G58A U61A G80C G88C | ≤ -4.2 |
| U4G A89C C131A | -3.28 |
| A21C U53A A91U C95G U134A U139C G152U | ≤ -4.2 |
| U45A U148G C149G | ≤ -4.2 |
| U6G A28G G58U C85U | ≤ -4.2 |
| C14G A28G U31A C32U G34A G42C U55G G94U | ≤ -4.2 |
| A52C U90G | ≤ -4.2 |
| C5U G84A C95A | 0.351 |
| G71C C95A | ≤ -4.2 |
| U7A A20G C35U A47G G83A C96A | ≤ -4.2 |
| G62A G141U | 1.11 |
| U6C G94A C105U U127A | ≤ -4.2 |
| C95U U111G | ≤ -4.2 |
| C57A A60C C85A | -3.08 |
| C14G C18U A52G G81U G92A C131G | ≤ -4.2 |
| G124U U135C | -2.36 |
| C32U C63U A91U C96U A113U G124C | ≤ -4.2 |
| A39U G84C | -3.33 |
| A20U U82A C93U U145G | -2.69 |
| C69U C85A | -3.16 |

| Variant | polymerase ribozyme fitness (log ratio) |
| --- | --- |
| A20U A30U C76U A89G A91C A122G U134G | ≤ -4.2 |
| G25U C69G U146A | -4.05 |
| A23U G94A | -3.99 |
| A60G U134A | -1.8 |
| C85G C99U G112U C118U | ≤ -4.2 |
| A22U C85A | -0.394 |
| C8A G88A | ≤ -4.2 |
| G50C G68A A142U | ≤ -4.2 |
| A41U A52C | -2.05 |
| C35U G71U | -3.53 |
| A22C C38U G58U A60C C85A C87U G133A G140U | ≤ -4.2 |
| G11A A39G C54G C87U C96G | ≤ -4.2 |
| C57U U102A C103U | -1.15 |
| C75U U90C A91U C93G G94U A98C | ≤ -4.2 |
| A22C A23G G62A A91G A98U C114A U146A | ≤ -4.2 |
| A19C U56A | 0.406 |
| A19U C38A C54U C85A C108A | ≤ -4.2 |
| G59A A60G G94U C95A | -1.74 |
| A21G A30U A60C U77G C85A G94U G117U A150G | ≤ -4.2 |
| U56C C87U | -1.06 |
| U56A A60G | 0.416 |
| A37G U56A G84A C85U G133C | -4.13 |
| U151A | -3.44 |
| A64U A121C G143A | ≤ -4.2 |

| Variant | polymerase ribozyme fitness (log ratio) |
| --- | --- |
| U6G A52C | -0.94 |
| U61G C95G | -2.32 |
| G74A G84A A89G | ≤ -4.2 |
| A29U U31G C36U C69G G84A | ≤ -4.2 |
| A20U A29G A91C C93A G128U | ≤ -4.2 |
| A16G A39U C43G G50U G67C U109A U134A U139C | ≤ -4.2 |
| G86A C87G | -3.97 |
| U78A U90C | ≤ -4.2 |
| C69A G70A | -4.19 |
| C36A U55A A64U C96A C118G | ≤ -4.2 |
| A30G A121U | -3.39 |
| A60C C93A | -3.64 |
| C18G C95U | 0.206 |
| A60G G92A C96U A121C | -2.75 |
| A22G C51U U78G C95U A107G U146C | ≤ -4.2 |
| U31C A47U G88A C108A | ≤ -4.2 |
| C69G G126U C131A | ≤ -4.2 |
| U78A C93A G124U | ≤ -4.2 |
| A20G G80A U82G C95U | -1.15 |
| G92A | -2.51 |
| A12G U45G C69G A91C A115G G133A G143U | ≤ -4.2 |
| G84U A115U | -3.4 |
| G141U | 1.61 |
| A20C U127G G133C U134C A137C A138G G140A | ≤ -4.2 |

| Variant | polymerase ribozyme fitness (log ratio) |
| --- | --- |
| C85U G136U G152C | ≤ -4.2 |
| A17U G25C | -4.13 |
| A23U G74U U82G | ≤ -4.2 |
| C5G U9G G86A | -4 |
| A19C U44A | -3.87 |
| A12U U15C U56A G92A A150G | -1.16 |
| U13C U61G G84A A91G | -3.86 |
| C14G G50A G58C U82C G141C | -4.17 |
| U111G | -4.05 |
| C96G A119U | -2.52 |
| C105U A120U G124A | 0.877 |
| G42A G59A G92A G100A C125A U146C | ≤ -4.2 |
| G68C A122C | ≤ -4.2 |
| A28C U151A | ≤ -4.2 |
| C14G U77G A97U U111C | -4.01 |
| A66C C85G G141A U146C | ≤ -4.2 |
| U15C A19G C69G C76A C79G G84U C95A A110U | ≤ -4.2 |
| G34A C57G A66U A115U U134C A142U U148G | -3.95 |
| C18G A20C A52G A73U A120G | -3.02 |
| U9A G59A A60C C93U | ≤ -4.2 |
| G94U U104C G117U U134A | -2.96 |
| A28G G83C | -4.1 |
| C14U A16C C57G G83U C85U A107G G140C A142C | ≤ -4.2 |
| C54U C76U C93G A150G | -4.08 |

| Variant | polymerase ribozyme fitness (log ratio) |
| --- | --- |
| G25U C54A G80A | -4.05 |
| C8A G58C U82A A98G G136U | ≤ -4.2 |
| C18G A20G G25C U33G G68U C96U A98G | ≤ -4.2 |
| G84A G133C G143U | -3.92 |
| U15C C35G A39U A73G G83C G100A A107G C125A G141U | ≤ -4.2 |
| A17G A24U A26U G58A | -4.02 |
| C18A A26U G84A A138G | ≤ -4.2 |
| C79U A91C | -4.02 |
| C96U A97G G124A C149A | -4.08 |
| C36U C69G A73G C87A G100U G112C G141C | ≤ -4.2 |
| U55A A60C | -4.18 |
| U15G A19U A20U A29G U56A C57A C63U G94A U145G | ≤ -4.2 |
| A30U C54U A73G C95A C116U | -4.03 |
| C14U U145A | -1.55 |
| C5G U56A G94C A120G | -1.95 |
| A40U C63G | 0.0879 |
| U7C U55A C63U G88U A107U U145A | ≤ -4.2 |
| U56G C87A C103U C114U C125U | ≤ -4.2 |
| C36G U56A G94U A97C A120U C125U | ≤ -4.2 |
| A37C U53A U78A C85A | ≤ -4.2 |
| U9G A20C A29U C35U A47C C54U U56A C96A U130G | ≤ -4.2 |
| C14U A26U C54U C79U G94A U111G C123U | ≤ -4.2 |
| C8U U53A | -3.41 |

— the RNAGym collection of RNA variant scans (doi:10.1073/pnas.2313332121)
